Measurements as given in the supplement of paper PMC10266784.

B1: library; numbered along this chain (parent)
chain: MAAAAAAAAEQQSSNGPVKKSMREKAVERRSVNKEHNSNFKAGYIPIDEDRLHKTGLRGRKGNLAICVIILLFILAVINLIITLVIWAVIRIGPNGCDSMEFHESGLLRFKQVSDMGVIHPLYKSTVGGRRNENLVITGNNQPIVFQQGTTKLSVENNKTSITSDIGMQFFDPRTQNILFSTDYETHEFHLPSGVKSLNVQKASTERITSNATSDLNIKVDGRAIVRGNEGVFIMGKTIEFHMGGNMELKAENSIILNGSVMVSTTRLPSSSSGDQLGSGDWVRYKLCMCADGTLFKVQVTSQNMGCQISDNPCGNTH

Variants of: B1
Experiment: SGCB cell-surface expression functional score (HA stain, bin4 vs bin1, normalised to synonymous) (log10 ratio); higher = more cell-surface SGCB (functional)
How it was run: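 HEK293 cells stably expressing alpha-, gamma- and delta-sarcoglycan received codon-saturation libraries of HA-tagged, YFP-fused human beta-sarcoglycan by lentiviral transduction at MOI <0.1, performed in duplicate. Cells positive for YFP were sorted after 72 hours and cultured for 5–7 days, then stained on ice with Alexa Fluor 647 anti-HA and fixed. Fixed cells were sorted into four 5% intensity bins and amplicon-sequenced, and the log ratio of highest-bin to lowest-bin variant frequency, as a median over codons and transductions, gives the functional score. Per section, synonymous variants were scaled to mean 0, SD 0.5.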

First: MAAAAAAAAEQQSSNGPVKKSMREKAVERRSVNKEHNSNFKAGYIPIDEDRLHKTGLRGRKGNLAICVIILLFILAVINLIITLVIWAVIRIGPNGCDSMEFHESFLLRFKQVSDMGVIHPLYKSTVGGRRNENLVITGNNQPIVFQQGTTKLSVENNKTSITSDIGMQFFDPRTQNILFSTDYETHEFHLPSGVKSLNVQKASTERITSNATSDLNIKVDGRAIVRGNEGVFIMGKTIEFHMGGNMELKAENSIILNGSVMVSTTRLPSSSSGDQLGSGDWVRYKLCMCADGTLFKVQVTSQNMGCQISDNPCGNTH [G106F]
Second: MAAAAAAAAEQQSSNGPVKKSMREKAVERRSVNKEHNSNFKAGYIPIDEDRLHKTGLRGRKGNLAICVIILLFILAVINLIITLVIWAVIRIGPNGCDSMEFHESNLLRFKQVSDMGVIHPLYKSTVGGRRNENLVITGNNQPIVFQQGTTKLSVENNKTSITSDIGMQFFDPRTQNILFSTDYETHEFHLPSGVKSLNVQKASTERITSNATSDLNIKVDGRAIVRGNEGVFIMGKTIEFHMGGNMELKAENSIILNGSVMVSTTRLPSSSSGDQLGSGDWVRYKLCMCADGTLFKVQVTSQNMGCQISDNPCGNTH [G106N]
The “SGCB cell-surface expression functional score (log10)” value of the first is lower: -1.86 for the first, -0.38 for the second.

First: MAAAAAAAAEQQSSNGPVKKSMREKAVERRSVNKEHNSNFKAGYIPIDEDRLHKTGLRGRKGNLAICVIILLFILAVINLIITLVIWAVIRIGPNGCDSMEFHESHLLRFKQVSDMGVIHPLYKSTVGGRRNENLVITGNNQPIVFQQGTTKLSVENNKTSITSDIGMQFFDPRTQNILFSTDYETHEFHLPSGVKSLNVQKASTERITSNATSDLNIKVDGRAIVRGNEGVFIMGKTIEFHMGGNMELKAENSIILNGSVMVSTTRLPSSSSGDQLGSGDWVRYKLCMCADGTLFKVQVTSQNMGCQISDNPCGNTH [G106H]
Second: MAAAAAAAAEQQSSNGPVKKSMREKAVERRSVNKEHNSNFKAGYIPIDEDRLHKTGLRGRKGNLAICVIILLFILAVINLIITLVIWAVIRIGPNGCDSMEFHESKLLRFKQVSDMGVIHPLYKSTVGGRRNENLVITGNNQPIVFQQGTTKLSVENNKTSITSDIGMQFFDPRTQNILFSTDYETHEFHLPSGVKSLNVQKASTERITSNATSDLNIKVDGRAIVRGNEGVFIMGKTIEFHMGGNMELKAENSIILNGSVMVSTTRLPSSSSGDQLGSGDWVRYKLCMCADGTLFKVQVTSQNMGCQISDNPCGNTH [G106K]
The “SGCB cell-surface expression functional score (log10)” value of the first is higher: -0.43 for the first, -0.63 for the second.

Compared with MAAAAAAAAEQQSSNGPVKKSMREKAVERRSVNKEHNSNFKAGYIPIDEDRLHKTGLRGRKGNLAICVIILLFILAVINLIITLVIWAVIRIGPNGCDSMEFHESYLLRFKQVSDMGVIHPLYKSTVGGRRNENLVITGNNQPIVFQQGTTKLSVENNKTSITSDIGMQFFDPRTQNILFSTDYETHEFHLPSGVKSLNVQKASTERITSNATSDLNIKVDGRAIVRGNEGVFIMGKTIEFHMGGNMELKAENSIILNGSVMVSTTRLPSSSSGDQLGSGDWVRYKLCMCADGTLFKVQVTSQNMGCQISDNPCGNTH [G106Y], MAAAAAAAAEQQSSNGPVKKSMREKAVERRSVNKEHNSNFKAGYIPIDEDRLHKTGLRGRKGNLAICVIILLFILAVINLIITLVIWAVIRIGPNGCDSMEFHESPLLRFKQVSDMGVIHPLYKSTVGGRRNENLVITGNNQPIVFQQGTTKLSVENNKTSITSDIGMQFFDPRTQNILFSTDYETHEFHLPSGVKSLNVQKASTERITSNATSDLNIKVDGRAIVRGNEGVFIMGKTIEFHMGGNMELKAENSIILNGSVMVSTTRLPSSSSGDQLGSGDWVRYKLCMCADGTLFKVQVTSQNMGCQISDNPCGNTH [G106P] is lower in “SGCB cell-surface expression functional score (log10)” value: -1.15 for the first, -1.85 for the second.

Going from MAAAAAAAAEQQSSNGPVKKSMREKAVERRSVNKEHNSNFKAGYIPIDEDRLHKTGLRGRKGNLAICVIILLFILAVINLIITLVIWAVIRIGPNGCDSMEFHESRLLRFKQVSDMGVIHPLYKSTVGGRRNENLVITGNNQPIVFQQGTTKLSVENNKTSITSDIGMQFFDPRTQNILFSTDYETHEFHLPSGVKSLNVQKASTERITSNATSDLNIKVDGRAIVRGNEGVFIMGKTIEFHMGGNMELKAENSIILNGSVMVSTTRLPSSSSGDQLGSGDWVRYKLCMCADGTLFKVQVTSQNMGCQISDNPCGNTH [G106R] to MAAAAAAAAEQQSSNGPVKKSMREKAVERRSVNKEHNSNFKAGYIPIDEDRLHKTGLRGRKGNLAICVIILLFILAVINLIITLVIWAVIRIGPNGCDSMEFHESTLLRFKQVSDMGVIHPLYKSTVGGRRNENLVITGNNQPIVFQQGTTKLSVENNKTSITSDIGMQFFDPRTQNILFSTDYETHEFHLPSGVKSLNVQKASTERITSNATSDLNIKVDGRAIVRGNEGVFIMGKTIEFHMGGNMELKAENSIILNGSVMVSTTRLPSSSSGDQLGSGDWVRYKLCMCADGTLFKVQVTSQNMGCQISDNPCGNTH [G106T], the “SGCB cell-surface expression functional score (log10)” value falls from -0.35 to -0.86.

MAAAAAAAAEQQSSNGPVKKSMREKAVERRSVNKEHNSNFKAGYIPIDEDRLHKTGLRGRKGNLAICVIILLFILAVINLIITLVIWAVIRIGPNGCDSMEFHESVLLRFKQVSDMGVIHPLYKSTVGGRRNENLVITGNNQPIVFQQGTTKLSVENNKTSITSDIGMQFFDPRTQNILFSTDYETHEFHLPSGVKSLNVQKASTERITSNATSDLNIKVDGRAIVRGNEGVFIMGKTIEFHMGGNMELKAENSIILNGSVMVSTTRLPSSSSGDQLGSGDWVRYKLCMCADGTLFKVQVTSQNMGCQISDNPCGNTH [G106V] and MAAAAAAAAEQQSSNGPVKKSMREKAVERRSVNKEHNSNFKAGYIPIDEDRLHKTGLRGRKGNLAICVIILLFILAVINLIITLVIWAVIRIGPNGCDSMEFHESLLLRFKQVSDMGVIHPLYKSTVGGRRNENLVITGNNQPIVFQQGTTKLSVENNKTSITSDIGMQFFDPRTQNILFSTDYETHEFHLPSGVKSLNVQKASTERITSNATSDLNIKVDGRAIVRGNEGVFIMGKTIEFHMGGNMELKAENSIILNGSVMVSTTRLPSSSSGDQLGSGDWVRYKLCMCADGTLFKVQVTSQNMGCQISDNPCGNTH [G106L] are within 0.2 log units of each other in “SGCB cell-surface expression functional score (log10)” value: -1.47 for the first, -1.62 for the second.

Compared with MAAAAAAAAEQQSSNGPVKKSMREKAVERRSVNKEHNSNFKAGYIPIDEDRLHKTGLRGRKGNLAICVIILLFILAVINLIITLVIWAVIRIGPNGCDSMEFHESSLLRFKQVSDMGVIHPLYKSTVGGRRNENLVITGNNQPIVFQQGTTKLSVENNKTSITSDIGMQFFDPRTQNILFSTDYETHEFHLPSGVKSLNVQKASTERITSNATSDLNIKVDGRAIVRGNEGVFIMGKTIEFHMGGNMELKAENSIILNGSVMVSTTRLPSSSSGDQLGSGDWVRYKLCMCADGTLFKVQVTSQNMGCQISDNPCGNTH [G106S], MAAAAAAAAEQQSSNGPVKKSMREKAVERRSVNKEHNSNFKAGYIPIDEDRLHKTGLRGRKGNLAICVIILLFILAVINLIITLVIWAVIRIGPNGCDSMEFHESQLLRFKQVSDMGVIHPLYKSTVGGRRNENLVITGNNQPIVFQQGTTKLSVENNKTSITSDIGMQFFDPRTQNILFSTDYETHEFHLPSGVKSLNVQKASTERITSNATSDLNIKVDGRAIVRGNEGVFIMGKTIEFHMGGNMELKAENSIILNGSVMVSTTRLPSSSSGDQLGSGDWVRYKLCMCADGTLFKVQVTSQNMGCQISDNPCGNTH [G106Q] is lower in “SGCB cell-surface expression functional score (log10)” value: -0.78 for the first, -1.48 for the second.

Going from MAAAAAAAAEQQSSNGPVKKSMREKAVERRSVNKEHNSNFKAGYIPIDEDRLHKTGLRGRKGNLAICVIILLFILAVINLIITLVIWAVIRIGPNGCDSMEFHESMLLRFKQVSDMGVIHPLYKSTVGGRRNENLVITGNNQPIVFQQGTTKLSVENNKTSITSDIGMQFFDPRTQNILFSTDYETHEFHLPSGVKSLNVQKASTERITSNATSDLNIKVDGRAIVRGNEGVFIMGKTIEFHMGGNMELKAENSIILNGSVMVSTTRLPSSSSGDQLGSGDWVRYKLCMCADGTLFKVQVTSQNMGCQISDNPCGNTH [G106M] to MAAAAAAAAEQQSSNGPVKKSMREKAVERRSVNKEHNSNFKAGYIPIDEDRLHKTGLRGRKGNLAICVIILLFILAVINLIITLVIWAVIRIGPNGCDSMEFHESILLRFKQVSDMGVIHPLYKSTVGGRRNENLVITGNNQPIVFQQGTTKLSVENNKTSITSDIGMQFFDPRTQNILFSTDYETHEFHLPSGVKSLNVQKASTERITSNATSDLNIKVDGRAIVRGNEGVFIMGKTIEFHMGGNMELKAENSIILNGSVMVSTTRLPSSSSGDQLGSGDWVRYKLCMCADGTLFKVQVTSQNMGCQISDNPCGNTH [G106I], the “SGCB cell-surface expression functional score (log10)” value falls from -0.94 to -1.82.

Going from MAAAAAAAAEQQSSNGPVKKSMREKAVERRSVNKEHNSNFKAGYIPIDEDRLHKTGLRGRKGNLAICVIILLFILAVINLIITLVIWAVIRIGPNGCDSMEFHESWLLRFKQVSDMGVIHPLYKSTVGGRRNENLVITGNNQPIVFQQGTTKLSVENNKTSITSDIGMQFFDPRTQNILFSTDYETHEFHLPSGVKSLNVQKASTERITSNATSDLNIKVDGRAIVRGNEGVFIMGKTIEFHMGGNMELKAENSIILNGSVMVSTTRLPSSSSGDQLGSGDWVRYKLCMCADGTLFKVQVTSQNMGCQISDNPCGNTH [G106W] to MAAAAAAAAEQQSSNGPVKKSMREKAVERRSVNKEHNSNFKAGYIPIDEDRLHKTGLRGRKGNLAICVIILLFILAVINLIITLVIWAVIRIGPNGCDSMEFHESGELRFKQVSDMGVIHPLYKSTVGGRRNENLVITGNNQPIVFQQGTTKLSVENNKTSITSDIGMQFFDPRTQNILFSTDYETHEFHLPSGVKSLNVQKASTERITSNATSDLNIKVDGRAIVRGNEGVFIMGKTIEFHMGGNMELKAENSIILNGSVMVSTTRLPSSSSGDQLGSGDWVRYKLCMCADGTLFKVQVTSQNMGCQISDNPCGNTH [L107E], the “SGCB cell-surface expression functional score (log10)” value falls from -0.87 to -1.14.

Going from MAAAAAAAAEQQSSNGPVKKSMREKAVERRSVNKEHNSNFKAGYIPIDEDRLHKTGLRGRKGNLAICVIILLFILAVINLIITLVIWAVIRIGPNGCDSMEFHESGCLRFKQVSDMGVIHPLYKSTVGGRRNENLVITGNNQPIVFQQGTTKLSVENNKTSITSDIGMQFFDPRTQNILFSTDYETHEFHLPSGVKSLNVQKASTERITSNATSDLNIKVDGRAIVRGNEGVFIMGKTIEFHMGGNMELKAENSIILNGSVMVSTTRLPSSSSGDQLGSGDWVRYKLCMCADGTLFKVQVTSQNMGCQISDNPCGNTH [L107C] to MAAAAAAAAEQQSSNGPVKKSMREKAVERRSVNKEHNSNFKAGYIPIDEDRLHKTGLRGRKGNLAICVIILLFILAVINLIITLVIWAVIRIGPNGCDSMEFHESGDLRFKQVSDMGVIHPLYKSTVGGRRNENLVITGNNQPIVFQQGTTKLSVENNKTSITSDIGMQFFDPRTQNILFSTDYETHEFHLPSGVKSLNVQKASTERITSNATSDLNIKVDGRAIVRGNEGVFIMGKTIEFHMGGNMELKAENSIILNGSVMVSTTRLPSSSSGDQLGSGDWVRYKLCMCADGTLFKVQVTSQNMGCQISDNPCGNTH [L107D], the “SGCB cell-surface expression functional score (log10)” value falls from 0.24 to -0.74.

In the case of MAAAAAAAAEQQSSNGPVKKSMREKAVERRSVNKEHNSNFKAGYIPIDEDRLHKTGLRGRKGNLAICVIILLFILAVINLIITLVIWAVIRIGPNGCDSMEFHESGALRFKQVSDMGVIHPLYKSTVGGRRNENLVITGNNQPIVFQQGTTKLSVENNKTSITSDIGMQFFDPRTQNILFSTDYETHEFHLPSGVKSLNVQKASTERITSNATSDLNIKVDGRAIVRGNEGVFIMGKTIEFHMGGNMELKAENSIILNGSVMVSTTRLPSSSSGDQLGSGDWVRYKLCMCADGTLFKVQVTSQNMGCQISDNPCGNTH [L107A], the “SGCB cell-surface expression functional score (log10)” value is reported as -0.67.
